Experimental data: the supplement of paper PMC11865577

Experiments:
Test in all cases: pull-down binding Z-score (relative to library population); higher = stronger binding
Conditions in all cases: RNA library: Library-2
TO-N3 (biotin conjugate) = test system: TO-N3 (biotin conjugate)
Outline: (§1)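 The RNA library, end-labelled with Cy5 or Cy3, was heat-folded in phosphate/NaCl/KCl buffer, and 1 μg was incubated at 25 °C for 60 min with streptavidin beads carrying 100 pmol of biotin-conjugated small molecule. Hot SDS released the bound RNA, which was then hybridised to a DNA barcode microarray for 20 h at 55.5 °C. For scoring binding, signal from beads alone was subtracted, replicate barcoded probes were averaged after discarding the highest and lowest, and each value was turned into a Z-score from the library mean and standard deviation.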

[1] = test system: TO-3-N3-2 (biotin conjugate)
Outline: as §1

[2] = test system: TO-3-N3 (biotin conjugate)
Outline: as §1

[3] = test system: TO-N3-2 (biotin conjugate)
Outline: as §1

Sequence	pull-down binding Z-score (TO-N3 (biotin conjugate))	pull-down binding Z-score [1]	pull-down binding Z-score [2]	pull-down binding Z-score [3]
GGGGAUCUAUCAGAUUCUGGCGAUCUACUCAACUGUCGCCAGUUCACUGGUGCUUUUGGUCUCC [IAV_invivo_HA_4_Motif_19+IAV_invivo_HA_4_Motif_19]	0.629	0.123	0.57	0.69
AACGGGGCGGGCCCUGGGCGGGGUAA [G4_2A2_VEGF-Pu22-mt2]	7.22	10.6	8.94	5.33
AUAAACCACCCAUUAGUUUUCCAUUGUGUGCUAAUGGACAAGUUUUUGGUUUAU	-1.34	-0.594	-0.734	-1.1
CUUGAACAAUGGAACCUAGUAAUAGGUUUCCUAUUCCUUACAUGGAUUUGUCUUCUACAAUUUGCCUAUGCCAACAGGAAUAGGUUUUUGUAUAUAAUUAAG	-1.12	-0.369	-0.828	-1.14
GUCUGGGAUCAACGAGUCAGCGGAC [IAV_invivo_PB1_2_Motif_28+IAV_invivo_PB1_2_Motif_28]	-0.256	-0.51	-0.28	0.401
CCACAUAGAUCAUCCAAAUCCUAAAGGAUUUUGUGACUUAAAAGG [SHAPE_invivo_SARS-CoV-2_Motif_251]	-0.169	-0.357	-0.167	-0.137
UUAAAAUAUGACUUCACGGAAGAGAGGUUAAAACUCUUUGACCGUUAUUUUAA [DMSMaPseq_invitro_SARS-CoV-2_Motif_258]	-0.184	0.159	0.0656	-0.898
AGUGAGUACACUGGUAAUUACCAGUGUGGUCACU [SHAPE_invivo_SARS-CoV-2_Motif_119]	-0.332	0.0249	0.0351	-1.01
UAAACACGCUUGUUAAACAACUUAGCUCCAAUUUUGGUGCAAUUUCAAGUGUUUUA [SHAPE_invitro_SARS-CoV-2_Motif_443]	-0.925	-0.221	-0.82	-0.333
CCCCAAAAGAAAUUAUCUUCUUAGAGGG	0.286	-0.623	-0.165	0.109
UCUCGUUCACUGGGGA [IAV_invivo_PA_3_Motif_5+IAV_invivo_PA_3_Motif_5]	0.198	0.0349	0.366	-0.216
GAGCUGCCCUGUCGGUGAAGCUC [IAV_invivo_NA_6_Motif_6+IAV_invivo_NA_6_Motif_6]	0.217	-0.0787	0.171	0.384
GUAAGAGAAUUCCUUAC	-0.531	-0.0559	-0.366	-0.727
GCAGACUUCAAAGUUUGC	-0.139	-0.0803	0.23	-1.04
GGCCUUGAAGCC [SHAPE_invitro_SARS-CoV-2_Motif_466]	-0.703	-0.216	-0.406	-0.459
UCCAAACGCAAGCUUCGAUAAUUUUAAGUUUGUAUGUGA [SHAPE_invivo_SARS-CoV-2_Motif_125]	-0.589	-0.0327	-0.388	-0.684
UCUAAAUGAAACUCUUGUUACAAUGCCACUUGGCUAUGUAACACAUGGCUUAAAUUUGGA	-1.16	-0.364	-1.01	-1.03
GACAAUGUCUUAUCUACUUUUAUUUCAGCAGCUCGGCAAGGGUUUGUUGAUUCAGAUGUAGAAACUAAAGAUGUUGUU	-0.599	-0.111	-0.56	-0.776
UAAUUCUUGGCUUAUGUGGUUAAUAAUUA [DMSMaPseq_invitro_SARS-CoV-2_Motif_139]	-0.293	-0.0756	-0.0604	-0.709
GUUUAUGAAAAACUCAAACCCGUCCUUGAUUGGCUUGAAGAGAAGUUUAAGGAAGGUGUAGAGUUUCUUAGAGAC	0.416	-0.241	0.121	-0.0848
CUGUCACUAAG	-0.36	-0.0755	-0.404	-0.584
GUCCUAAAGUGAAGUAUUUAUACUUUAUUAAAGGAU [SHAPE_invivo_SARS-CoV-2_Motif_244]	-1.19	-0.605	-0.854	-1.51
GGUCAAAUCAAUGAUAUGAUUUUAUC	-1.26	-0.505	-0.859	-1.3
AGUUUUUGUACACAAUUAAACCGUGCUUUAACU	-0.618	-0.252	-0.534	-1.04

Sequence	pull-down binding Z-score (TO-N3 (biotin conjugate))	pull-down binding Z-score [1]	pull-down binding Z-score [2]	pull-down binding Z-score [3]
GUGUACCUUCCUUACCCAGAUCCAUCAAGAAUCCUAGGGGCCGGCUGUUUUGUAGAUGAUAUCGUAAAAACAGAUGGUACAC [SHAPE_invivo_SARS-CoV-2_Multi_39_ComplexLevel_1]	0.78	-0.087	0.725	0.318
GUUAUAAAUGGAGACAGGUGGUUUCUCAAUCGAUUUACCACAACUCUUAAUGAC	-0.772	0.00889	-0.728	-0.831
UAGUGCAAAGAAUAGAGCUCGCACCGUAGCUGGUGUCUCUAUCUGUAGUACUA	-0.0718	0.188	-0.167	0.18
AAAUUGCCGAUAAGUAUGUCCGCAAUUU	-0.683	-0.436	-0.317	-1.13
UCAUACUGAAAGCGAACUUCAGUGUGA [IAV_invivo_NS1_NEP_8_Motif_9+IAV_invivo_NS1_NEP_8_Motif_9]	-0.352	-0.294	-0.0847	-1.16
GGGUGGGUGGGUGGGUGGGUGGGU [G4_r(GGGU)6]	7.43	10.9	9.01	5.53
GCCACAAAGGC [IAV_invivo_PA_3_Motif_6+IAV_invivo_PA_3_Motif_6]	-1.13	-0.685	-0.745	-0.964
GGAUUUCUGGACAUUUGGACAUAUAAUGCAGAAUUGUUAGUUCUACUGGAAAAUGAAAGGACUCUGGAUUUCC [IAV_invivo_HA_4_Motif_17+IAV_invivo_HA_4_Motif_17]	-0.198	0.4	-0.659	0.395
GCAUACAGUCGCUACAGGAUUGGCAACUAUAAAUUAAACACAGACCAUUCCAGUAGCAGUGACAAUAUUGC [SHAPE_invivo_SARS-CoV-2_Motif_513]	0.116	0.365	-0.0312	0.259
CGGCGGGCACGUAGUGUAGCUAGUCAAUCCAUCAUUGCCUACACUAUGUCACUUGGUG [SHAPE_invitro_SARS-CoV-2_Motif_429]	1.13	0.313	0.745	1.07
UCUUUAUUUGACAUGAGUAAAUUUCCCCUUAAAUUAAGGGGUACUGCUGUUAUGUCUUUAAAAGA [SHAPE_invitro_SARS-CoV-2_Motif_387]	-0.894	0.0957	-0.896	-0.575
GGCUAUGUAACACAUGGCU	-0.351	-0.449	-0.114	-1.06
UAUAAAGUUUAUUAUGGUAAUGCUUUAGAUCAAGCCAUUUCCAUGUGGGCUCUUAUA	-0.806	-0.133	-0.704	-0.695
GCUGAGUUGCCAUUCAGC [IAV_invivo_NA_6_Motif_18+IAV_invivo_NA_6_Motif_18]	-0.304	-0.204	-0.302	-0.226
AUUAUGUGUACCUUCCUUACCCAGAUCCAUCAAGAAUCCUAGGGGCCGGCUGUUUUGUAGAUGAUAUCGUAAAAACAGAUGGUACACUUAUGAU [DMSMaPseq_invitro_SARS-CoV-2_Multi_47_ComplexLevel_1]	0.0551	0.0322	-0.234	0.511
GUACGAUCGAGUGUAC [DMSMaPseq_invitro_SARS-CoV-2_Motif_538]	0.105	-0.222	0.143	0.0595
CCCAUUGGAGAGUCCCCCAAAGGAGUGGAGGAAAGUUCCAUUGGG [IAV_invivo_PA_3_Motif_26+IAV_invivo_PA_3_Motif_26]	-0.0467	-0.0971	-0.0565	0.298
AACAUUUACUUAUGCAUCAGCAUUGUGGGAAAUCCAACAGGUUGUAGAUGCAGAUAGUAAAAUUGUU [DMSMaPseq_invitro_SARS-CoV-2_Motif_222]	-0.126	-0.0746	0.159	-0.134
UGCUGUUGUUAAAAUUUAUUGUCCAGCA [SHAPE_invitro_SARS-CoV-2_Motif_28]	-0.582	-0.134	-0.341	-0.921
AACCAGUUAACUGGUU [SHAPE_invivo_SARS-CoV-2_Motif_126]	0.00533	-0.406	0.328	-1.24
UGAACCACAAAUCA [SHAPE_invitro_SARS-CoV-2_Motif_451]	-1.04	-0.565	-0.745	-0.906
AAACCCGGUAAUUUUAACAAAGACUUCUAUGACUUUGCUGUGUCUAAGGGUUU [SHAPE_invivo_SARS-CoV-2_Motif_278]	-0.677	-0.338	-0.52	-0.917
GUGCCAUCAAAUUGGAUGACAAAGAUCCAAAUUUCAAAGAUCAAGUCAUUUUGCUGAAUAAGCAUAUUGACGCAU	-0.411	-0.165	-0.675	-0.159
